The values below come from patent publication US20180022780A1 (Bayer, published 2018).

The target of assay [1] is CLR fused to EYFP with RAMP2 fused to ECFP. The assay can be described thus: cell-based or functional assay.
For assay [2], the target named is human adrenomedullin-receptor (human, UniProt Q16602 23-461). Put plainly: cell-based or functional assay.

Bridge positions count the residues as written; N and C are the ends. Square brackets hold non-standard residues; d marks the D form. Ends that are not written are not given here. * marks the point of attachment. Palmitoyl = CCCCCCCCCCCCCCCC(=O)*; NMeI = CC[C@H](C)[C@H](NC)C(=O)O

Chain of CLR fused to EYFP with RAMP2 fused to ECFP (Q16602 whole entry, chain 1 of 2, the tested form may be a part): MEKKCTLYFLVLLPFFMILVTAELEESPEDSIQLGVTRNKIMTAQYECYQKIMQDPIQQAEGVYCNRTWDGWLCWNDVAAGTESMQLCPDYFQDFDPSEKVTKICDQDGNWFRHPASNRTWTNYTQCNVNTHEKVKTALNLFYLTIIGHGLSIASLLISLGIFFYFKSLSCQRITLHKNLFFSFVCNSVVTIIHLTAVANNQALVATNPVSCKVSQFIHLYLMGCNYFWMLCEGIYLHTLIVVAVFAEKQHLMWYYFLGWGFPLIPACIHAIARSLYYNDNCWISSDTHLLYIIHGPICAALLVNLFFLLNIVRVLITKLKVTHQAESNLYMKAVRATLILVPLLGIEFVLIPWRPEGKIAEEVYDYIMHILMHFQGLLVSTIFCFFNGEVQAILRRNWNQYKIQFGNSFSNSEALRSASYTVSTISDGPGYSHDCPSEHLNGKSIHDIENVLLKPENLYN
Chain of CLR fused to EYFP with RAMP2 fused to ECFP (O60895 whole entry, chain 2 of 2, further chain, the tested form may be a part): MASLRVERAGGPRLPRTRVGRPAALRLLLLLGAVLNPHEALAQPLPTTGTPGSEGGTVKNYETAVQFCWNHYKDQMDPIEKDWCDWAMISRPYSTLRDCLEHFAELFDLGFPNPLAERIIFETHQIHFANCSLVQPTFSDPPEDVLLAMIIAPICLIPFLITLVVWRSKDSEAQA
Chain of human adrenomedullin-receptor (Q16602 23-461): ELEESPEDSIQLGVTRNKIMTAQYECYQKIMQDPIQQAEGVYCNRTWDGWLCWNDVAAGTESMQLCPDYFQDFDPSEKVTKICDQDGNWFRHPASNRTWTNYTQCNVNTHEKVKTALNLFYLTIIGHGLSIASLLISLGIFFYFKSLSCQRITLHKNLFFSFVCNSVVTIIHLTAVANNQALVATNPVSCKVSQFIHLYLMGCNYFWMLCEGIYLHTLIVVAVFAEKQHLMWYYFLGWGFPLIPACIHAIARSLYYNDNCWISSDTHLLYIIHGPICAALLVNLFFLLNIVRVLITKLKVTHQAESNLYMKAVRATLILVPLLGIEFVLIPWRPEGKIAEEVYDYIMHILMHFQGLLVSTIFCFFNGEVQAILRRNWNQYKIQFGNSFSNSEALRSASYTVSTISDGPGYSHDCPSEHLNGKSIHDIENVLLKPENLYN

B1: [K^14(PAM), (K^16,E^21)lac]ADM(14-52) (peptide)
peptide: K(Palmitoyl)GKRFGTETVQKLAHQIYQFTDKDKDNVAPRSKISPQGY-NH2
modifications: lactam 3-8; N-terminus assumed
SMILES: CCCCCCCCCCCCCCCC(=O)NCCCC[C@H](N)C(=O)NCC(=O)N[C@H]1CCCCNC(=O)CC[C@@H](C(=O)N[C@H](C(=O)N[C@H](C(=O)N[C@@H](CCC(N)=O)C(=O)N[C@@H](CCCCN)C(=O)N[C@@H](CC(C)C)C(=O)N[C@@H](C)C(=O)N[C@@H](Cc2c[nH]cn2)C(=O)N[C@@H](CCC(N)=O)C(=O)N[C@H](C(=O)N[C@@H](Cc2ccc(O)cc2)C(=O)N[C@@H](CCC(N)=O)C(=O)N[C@@H](Cc2ccccc2)C(=O)N[C@H](C(=O)N[C@@H](CC(=O)O)C(=O)N[C@@H](CCCCN)C(=O)N[C@@H](CC(=O)O)C(=O)N[C@@H](CCCCN)C(=O)N[C@@H](CC(=O)O)C(=O)N[C@@H](CC(N)=O)C(=O)N[C@H](C(=O)N[C@@H](C)C(=O)N2CCC[C@H]2C(=O)N[C@@H](CCCNC(=N)N)C(=O)N[C@@H](CO)C(=O)N[C@@H](CCCCN)C(=O)N[C@H](C(=O)N[C@@H](CO)C(=O)N2CCC[C@H]2C(=O)N[C@@H](CCC(N)=O)C(=O)NCC(=O)N[C@@H](Cc2ccc(O)cc2)C(N)=O)[C@@H](C)CC)C(C)C)[C@@H](C)O)[C@@H](C)CC)C(C)C)[C@@H](C)O)NC(=O)[C@H]([C@@H](C)O)NC(=O)CNC(=O)[C@H](Cc2ccccc2)NC(=O)[C@H](CCCNC(=N)N)NC1=O
As for B1, the “EC50 [nM], cAMP assay (CRE-luciferase luminescence, HEK293 cells)” value (“EC50 [nM], cAMP assay” below) in assay [1] was 156 nM. Also, the “EC50 [nM], aequorin luminescence of CHO adrenomedullin-receptor reporter cells” value (shortened to “EC50 [nM], aequorin luminescence”) in assay [2] was over 1000 nM.

B2: [K^14(PAM), (E^16, K^21)lac]ADM(14-52) (peptide)
peptide: K(Palmitoyl)GERFGTKTVQKLAHQIYQFTDKDKDNVAPRSKISPQGY-NH2
modifications: lactam 3-8; N-terminus assumed
SMILES: CCCCCCCCCCCCCCCC(=O)NCCCC[C@H](N)C(=O)NCC(=O)N[C@H]1CCC(=O)NCCCC[C@@H](C(=O)N[C@H](C(=O)N[C@H](C(=O)N[C@@H](CCC(N)=O)C(=O)N[C@@H](CCCCN)C(=O)N[C@@H](CC(C)C)C(=O)N[C@@H](C)C(=O)N[C@@H](Cc2c[nH]cn2)C(=O)N[C@@H](CCC(N)=O)C(=O)N[C@H](C(=O)N[C@@H](Cc2ccc(O)cc2)C(=O)N[C@@H](CCC(N)=O)C(=O)N[C@@H](Cc2ccccc2)C(=O)N[C@H](C(=O)N[C@@H](CC(=O)O)C(=O)N[C@@H](CCCCN)C(=O)N[C@@H](CC(=O)O)C(=O)N[C@@H](CCCCN)C(=O)N[C@@H](CC(=O)O)C(=O)N[C@@H](CC(N)=O)C(=O)N[C@H](C(=O)N[C@@H](C)C(=O)N2CCC[C@H]2C(=O)N[C@@H](CCCNC(=N)N)C(=O)N[C@@H](CO)C(=O)N[C@@H](CCCCN)C(=O)N[C@H](C(=O)N[C@@H](CO)C(=O)N2CCC[C@H]2C(=O)N[C@@H](CCC(N)=O)C(=O)NCC(=O)N[C@@H](Cc2ccc(O)cc2)C(N)=O)[C@@H](C)CC)C(C)C)[C@@H](C)O)[C@@H](C)CC)C(C)C)[C@@H](C)O)NC(=O)[C@H]([C@@H](C)O)NC(=O)CNC(=O)[C@H](Cc2ccccc2)NC(=O)[C@H](CCCNC(=N)N)NC1=O
In the case of B2, the “EC50 [nM], cAMP assay” value in assay [1] is 29 nM. In addition, in assay [2], the “EC50 [nM], aequorin luminescence” value worked out at 0.81 nM.

B3: [G^14, (C^16→U^21)]ADM(14-52) (peptide)
peptide: GGCRFGTXTVQKLAHQIYQFTDKDKDNVAPRSKISPQGY
modifications: positions 16 and 21 (residues 3 and 8 of the letters) together are cystathionine (C^16→U^21, thioether disulfide bond mimetic); X stands for the printed U at 21; C-terminal amide
As to B3, the “EC50 [nM], cAMP assay” value in assay [1] amounted to 3.3 nM. Further, in assay [2], the “EC50 [nM], aequorin luminescence” value was 0.07 nM.

B4: [G^14, (U^16→C^21)]ADM(14-52) (peptide)
peptide: GGXRFGTCTVQKLAHQIYQFTDKDKDNVAPRSKISPQGY
modifications: positions 16 and 21 (residues 3 and 8 of the letters) together are cystathionine (U^16→C^21, thioether disulfide bond mimetic); X stands for the printed U at 16; C-terminal amide
B4: the “EC50 [nM], cAMP assay” value in assay [1] was 6.8 nM. The “EC50 [nM], aequorin luminescence” value in assay [2] was determined as 1.54 nM.

B5: [K^14(PAM), (E^16,K^21)lac, N-Me-I^47]ADM(14-52) (peptide)
peptide: K(Palmitoyl)GERFGTKTVQKLAHQIYQFTDKDKDNVAPRSK[NMeI]SPQGY-NH2
modifications: lactam 3-8
For the molecule B5, in assay [1], the “EC50 [nM], cAMP assay” value was 150 nM. Also, the “EC50 [nM], aequorin luminescence” value in assay [2] turned out to be 32 nM.
